This passage reports Kd results from PMC11648224, “RNA G-quadruplexes and calcium ions synergistically induce Tau phase transition in vitro”.

This data set concerns the target Tau (Tau441, 2N4R) (human, UniProt P10636-8 1-441). Kind of data set: SPR; 10 mM KCl; SPR (OpenSPR): 50 mM Tris-HCl pH 7.4, 10 mM KCl; biotin-RNA on streptavidin chip, 20 ul/min, 1:1 fit; temperature not stated. The conditions noted are these: protein: recombinant, tags: none stated (pET23a-human Tau441).

Chain of Tau (Tau441, 2N4R) (P10636 other isoform, or with tags, fused parts or gaps): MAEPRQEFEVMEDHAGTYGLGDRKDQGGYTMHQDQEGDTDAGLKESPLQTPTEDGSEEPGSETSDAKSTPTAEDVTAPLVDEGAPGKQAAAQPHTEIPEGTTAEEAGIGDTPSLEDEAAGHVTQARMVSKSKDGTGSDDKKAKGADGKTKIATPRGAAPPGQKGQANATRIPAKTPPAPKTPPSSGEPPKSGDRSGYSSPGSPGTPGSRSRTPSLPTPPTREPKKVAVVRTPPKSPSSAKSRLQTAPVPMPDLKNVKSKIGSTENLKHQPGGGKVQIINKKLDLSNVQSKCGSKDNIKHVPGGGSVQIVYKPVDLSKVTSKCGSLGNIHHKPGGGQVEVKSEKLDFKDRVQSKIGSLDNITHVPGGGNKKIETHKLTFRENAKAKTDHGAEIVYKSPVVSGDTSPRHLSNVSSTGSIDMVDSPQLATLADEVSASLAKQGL

UUACCGUUACCGUUACCGUUACCG (ssRNA) [G4mt r(UUACCG)4]: the Kd was found to be 0.0525 ± 0.0143 µM.
CAGCAGCAGCAGCAGCAGCAGCAG (ssRNA) [r(CAG)8]: the Kd worked out at 0.0573 ± 0.0139 µM.
For AAAAAAAAAAAAAAAAAAAAAAAA (ssRNA) [r(AAA)8], the Kd came to 0.0717 ± 0.027 µM.
On to UUAGGGUUAGGGUUAGGGUUAGGG (structured_RNA) [G4tr r(UUAGGG)4], for which the Kd (RNA G-quadruplex) turned out to be 0.0321 ± 0.00838 µM.

In general, Kd refers to the free concentration of one partner at which half of the binding sites on the other are occupied at equilibrium, for simple one-to-one binding.
